Sequences and labels used below:
T1: BCMA (Homo sapiens (Human), UniProt Q02223 1-54, limits assumed)
T1 sequence: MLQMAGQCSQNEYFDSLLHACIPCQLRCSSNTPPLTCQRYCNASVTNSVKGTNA

B1: D-domain SEQ ID NO: 141 (designed binder)
chain: MGSWNEFRNRLGAIDSRLWALGGSEAELAAFEKEIAAFESELQAYKGKGNPEVETLRAHAAIIRSVLQAYRHN
B2: D-domain SEQ ID NO: 144 (designed binder)
chain: B1 chain with R8Y, G12H, D15N, S16L, T55V, A58E, S65Q, V66A
B3: D-domain SEQ ID NO: 142 (designed binder)
chain: B1 chain with N5H, H59R, I62M
B4: D-domain SEQ ID NO: 146 (designed binder)
chain: MGSWGEFNLRLVAIHVRLWALGGSEAELAAFEKEIAAFESELQAYKGKGNPEVEFLRSQAANIRAQLQAYRHN
B5: D-domain SEQ ID NO: 147 (designed binder)
chain: B4 chain with N8S, L9D, V12E, H15N, V16E, F55E, S58W, N62F, Q66N
B6: D-domain SEQ ID NO: 173 (designed binder)
chain: MGSWYEFWLRLSAISYRLQALGGSEAELAAFEKEIAAFESELQAYKGKGNPEVEWLRKEAAEIRSWLQAYRHN
B7: D-domain SEQ ID NO: 174 (designed binder)
chain: B6 chain with W8Q, S12W, S15H, Y16W, Q19I, K58M, E59R, S65N, W66E
B8: D-domain SEQ ID NO: 171 (designed binder)
chain: MGSWIEFHQRLNAIFNRLRALGGSEAELAAFEKEIAAFESELQAYKGKGNPEVEWLRHHAAYIREMLQAYRHN
B9: D-domain SEQ ID NO: 145 (designed binder)
chain: MGSWEEFYGRLSAIQDRLWALGGSEAELAAFEKEIAAFESELQAYKGKGNPEVEWLRMHAAVIRRALQAYRHN
B10: D-domain SEQ ID NO: 172 (designed binder)
chain: MGSWNEFRLRLWAITERLRALGGSEAELAAFEKEIAAFESELQAYKGKGNPEVECLRAEAAWIRTMLQAYRHN
B11: D-domain SEQ ID NO: 143 (designed binder)
chain: MGSWTEFYQRLEAINFRLWALGGSEAELAAFEKEIAAFESELQAYKGKGNPEVEVLRDKAALIRLMLQAYRHN
B12: D-domain SEQ ID NO: 149 (designed binder)
chain: MGSWMEFEGRLPAILARLRALGGSEAELAAFEKEIAAFESELQAYKGKGNPEVEHLRDKAAYIRWMLQAYRHN
B13: D-domain SEQ ID NO: 154 (designed binder)
chain: B12 chain with M5I, E8D, G9T, P12A, L15V, A16H, H55L, W65Y
B14: D-domain SEQ ID NO: 161 (designed binder)
chain: B12 chain with M5Y, G9H, P12K, L15V, A16S, R19G, W65Y
B15: D-domain SEQ ID NO: 159 (designed binder)
chain: B12 chain with M5V, G9Q, P12H, L15V, A16V, K48G, H55N, K59Q, W65F
B16: D-domain SEQ ID NO: 151 (designed binder)
chain: B12 chain with M5V, E8D, G9M, P12Q, A16E, K59S, W65L
B17: D-domain SEQ ID NO: 162 (designed binder)
chain: B12 chain with E8K, G9H, P12A, L15T, A16F, H55L, W65L, M66L
B18: D-domain SEQ ID NO: 166 (designed binder)
chain: MGSWMEFDERLWAIKKRLRALGGSEAELAAFEKEIAAFESELQAYKGKGNPEVEFLRHQAAYIRMLLQAYRHN
B19: D-domain SEQ ID NO: 153 (designed binder)
chain: B12 chain with E8N, G9V, P12R, A16D, R19H, H55L, W65F
B20: D-domain SEQ ID NO: 160 (designed binder)
chain: B12 chain with M5V, G9W, P12E, L15V, A16V, W65Y
B21: D-domain SEQ ID NO: 163 (designed binder)
chain: B18 chain with D8E, E9G, W12H, K16R, F55V, H58D, M65L
B22: D-domain SEQ ID NO: 152 (designed binder)
chain: B12 chain with M5V, E8N, G9A, P12D, A16F, K59Q, W65L
B23: D-domain SEQ ID NO: 155 (designed binder)
chain: B12 chain with M5I, E8D, G9Y, P12K, A16H, H55G, W65F, M66L
B24: D-domain SEQ ID NO: 158 (designed binder)
chain: B8 chain with I5E, H8D, Q9D, F15V, N16Y, W55M, H58D, H59Q, E65L
B25: D-domain SEQ ID NO: 156 (designed binder)
chain: B12 chain with M5Y, G9D, P12L, L15K, A16V, H55Y, K59Q, W65F
B26: D-domain SEQ ID NO: 167 (designed binder)
chain: B12 chain with M5H, E8D, P12S, L15K, A16R, R19W, K59Q, W65Y
B27: D-domain SEQ ID NO: 164 (designed binder)
chain: MGSWSEFVFRLDTIKSRLRALGGSEAELAAFEKEIAAFESELQAYKGKGNPEVETLRDQAAYIRLMLQAYRHN
B28: D-domain SEQ ID NO: 170 (designed binder)
chain: B12 chain with M5V, E8D, G9N, P12Y, L15V, A16D, D58Q, W65L, M66I
B29: D-domain SEQ ID NO: 148 (designed binder)
chain: B12 chain with E8Q
B30: D-domain SEQ ID NO: 165 (designed binder)
chain: B18 chain with M5Y, W12S, K16L, F55V, H58A, M65A, L66I
B31: D-domain SEQ ID NO: 157 (designed binder)
chain: B12 chain with M5Y, E8Q, G9D, P12S, L15T, A16T, H55L, W65F
B32: D-domain SEQ ID NO: 150 (designed binder)
chain: B12 chain with M5F, E8Q, G9N, P12Q, A16F, H55N, W65L
B33: D-domain SEQ ID NO: 168 (designed binder)
chain: B12 chain with M5Y, E8D, P12Q, L15I, D58F, K59R, M66I
B34: D-domain SEQ ID NO: 175 (designed binder)
chain: MGSWYEFAHRLEAIEWRLIALGGSEAELAAFEKEIAAFESELQAYKGKGNPEVEELRQYAAAIRNYLQAYRHN
B35: D-domain SEQ ID NO: 176 (designed binder)
chain: B18 chain with M5Y, E9T, W12G, K15R, K16N, R19G, F55W, H58F, M65F
B36: D-domain SEQ ID NO: 177 (designed binder)
chain: MGSWYEFWVRLTAIRWRLEALGGSEAELAAFEKEIAAFESELQAYKGKGNPEVEWLREQAASIRWVLQAYRHN
B37: D-domain SEQ ID NO: 169 (designed binder)
chain: MGSWFEFDKRLYAIIHRLRALGGSEAELAAFEKEIAAFESELQAYKGKGNPEVEKLRYKAAIIRLYLQAYRHN
B38: D-domain SEQ ID NO: 178 (designed binder)
chain: B37 chain with K9R, Y12K, I15D, H16R, R19M, K55W, Y58M, K59Q, L65N

Positions count from the first letter of the chain named.

In the assay the target is T1, BCMA. The assay can be described thus: ELISA, format not described. Further details: unit not given here. For orientation: An ELISA detects its analyte on a solid surface through an enzyme-linked reagent.
In the case of B1, the ELISA_avg is 4.7.

In turn, B2 yielded an ELISA_avg of 3.

B3 returned an ELISA_avg of 3.49.

On to B4, for which the ELISA_avg came to 12.8.

With B5, the ELISA_avg turned out to be 4.26.

The molecule B6 returned an ELISA_avg of 14.5.

In turn, B7 gave an ELISA_avg of 20.6.

The molecule B8 had an ELISA_avg of 7.34.

B9 displayed an ELISA_avg of 3.28.

In turn, B10 returned an ELISA_avg of 3.87.

In turn, B11 gave an ELISA_avg of 6.96.

As to B12, the ELISA_avg worked out at 3.93.

B13 displayed an ELISA_avg of 13.9.

B14: the ELISA_avg is 4.55.

In the case of B15, the ELISA_avg was 17.7.

On to B16, for which the ELISA_avg turned out to be 23.5.

Consider B17, for which the ELISA_avg was found to be 6.06.

In turn, B18 registered an ELISA_avg of 9.53.

For the molecule B19, the ELISA_avg was determined as 15.6.

With B20, the ELISA_avg stood at 14.9.

Take B21: the ELISA_avg came to 7.33.

Molecule B22 had an ELISA_avg of 13.5.

In the case of B23, the ELISA_avg was found to be 11.9.

In turn, B24 had an ELISA_avg of 18.6.

B25 showed an ELISA_avg of 17.6.

As to B26, the ELISA_avg worked out at 5.4.

As for B27, the ELISA_avg amounted to 19.9.

B28 came in with an ELISA_avg of 11.7.

Take B29: the ELISA_avg stood at 8.32.

In turn, B30 came in with an ELISA_avg of 16.9.

Turning to B31, the ELISA_avg stood at 10.1.

Molecule B32 had an ELISA_avg of 5.39.

Consider B33, for which the ELISA_avg stood at 3.29.

In turn, B34 yielded an ELISA_avg of 9.48.

Molecule B35 returned an ELISA_avg of 13.9.

With B36, the ELISA_avg was 5.72.

B37 returned an ELISA_avg of 11.8.

B38 had an ELISA_avg of 6.16.

Source of the values: US20250026849A1 (ARCELLX, published 2025).
